From PMC3813916

Target: HLA-DR1 on transfected murine fibroblasts (DAP.3-DR1) (human)
Test: radioligand binding

staphylococcal enterotoxin B (from UniProt P01552 28-266) (natural protein)
Kd: 0.141 µM
